From paper PMC11169542, “A probe for NIR-II imaging and multimodal analysis of early Alzheimer’s disease by targeting CTGF” (Nature Communications, 2024)
Entries after “also recorded” stand apart in the source; their conditions may differ. Ends that are not written are not given here.

Experiments:
CTX TNA2 cells = assay: Cytotoxicity of DGC (CCK-8); type: cell-based; design: key to Cell viability: viability relative to control cells (control = 1); conditions: for Cell viability: 24 h, CCK-8, normalized to control
Procedure: U87MG, SH-SY5Y, and CTX TNA2 cells were seeded into 96-well plates at a density of 5 × 10^3 cells per well and were incubated at 37 °C for 24 h. Then, the cells were treated with 5, 10, 20, 50, 100, and 500 µM DGC for 24 h. Next, 10 µL of a colorimetric Cell Counting Kit (CCK-8) reagent diluted with 100 µL medium was added to each well, and incubated for 30 min, The absorbance at 450 nm was measured using a microplate reader (Molecular Devices, San Jose, CA, USA). The relative viability was normalized to control cells. The experiment was performed in triplicates.

CTGF = target: T1, CTGF (Mus musculus, UniProt P29268); assay: In vivo NIR-II imaging of brain after DGC injection; design: species or system APP/PS1 and wild-type C57BL/6J mice; conditions: APP/PS1 mice
T1 construct: brain sections of the age-matched wild-type C57BL/6J mice were used as controls; from tissue; host or cells: brain of APP/PS1 transgenic and wild-type C57BL/6J mice (sections, living animal, perfused isolated brain)
T1 sequence (P29268 26-348): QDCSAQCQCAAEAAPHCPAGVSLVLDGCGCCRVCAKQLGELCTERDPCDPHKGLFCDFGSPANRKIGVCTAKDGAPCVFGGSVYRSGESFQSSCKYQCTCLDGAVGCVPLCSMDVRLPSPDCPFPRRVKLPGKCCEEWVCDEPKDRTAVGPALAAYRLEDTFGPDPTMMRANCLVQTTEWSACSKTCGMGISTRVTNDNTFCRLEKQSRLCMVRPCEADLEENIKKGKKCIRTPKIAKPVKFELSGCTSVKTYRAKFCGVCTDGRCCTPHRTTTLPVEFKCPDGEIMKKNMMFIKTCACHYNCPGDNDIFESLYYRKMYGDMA
Procedure: All animal procedures were performed under an approved protocol of the Ethics Committee of Beijing University of Technology, China. Female APP/PS1 mice and age-matched wild-type C57BL/6J mice were shaved before background imaging. For NIR-II imaging in vivo with DGC, the mice (n = 3) were fasted overnight before the experiment and then injected intravenously with DGC (20 mg/kg, 200 μL). NIR-II imaging of the brains was carried out on an In vivo Master (Grand-imaging Technology) equipped with an InGaAs camera C-RED2 (Firstlight) at different time points after injection of DGC (λ ex = 808 nm, 1000 nm longpass (LP) filter (Edmund Optics)). The excitation intensity of the 808 nm laser (Wuhan Grand-imaging Technology) was about […] and the optical images were acquired using an exposure time of 50 ms. Imaging data were analyzed by ImageJ software.

[1] = Biosafety: blood tests and organ pathological analysis (H&E staining); type: in vivo; conditions: C57BL/6J mice, 20 mg/kg DGC, vs untreated normal mice
From the text: In order to clarify the NIR-II signal in AD brains when in vivo imaging is arisen from the DGC probe that bound to CTGF, we selected 3-month-old APP/PS1 mice representing early-stage AD and the age-matched WT mice as control to performed ex vivo multimodal analysis of the brain sections. […] To exclude the influence of vascular retention, we emptied the cerebral vessels by cardiac perfusion and performed ex vivo imaging of the brains. […] For brain sections made from AD mice after tail vein injection of DGC, the red fluorescence observation and LA-ICP-TOF-MS of DGC, as well as a POD-like catalysis test were performed. […] In Fig. 6c, the colocalization of DGC (red fluorescence) and CTGF (green fluorescence) on the ex vivo brain sections confirmed the specificity of DGC targeting CTGF in vivo. To further identify the cellular target of DGC in the brain of APP/PS1 mice, we carried out immunofluorescence staining on the ex vivo brain sections after tail vein injection of DGC where cell-specific fluorescent antibodies for microglia (Iba 1), neurons (NeuN), vascular endothelial cell (CD31) and reactive astrocytes (GFAP) were applied. […] The biosafety of DGC in C57BL/6J mice under the NIR-II imaging condition was evaluated by blood tests (blood cells and biochemical analysis) and organ pathological analysis (H&E staining).

[2] = In vitro stability of DGC fluorescence on storage in PBS; type: physicochemical; conditions: two weeks storage in PBS
From the text: In this manuscript, Lu et al. reported a novel gold cluster-based probe modified with peptides that specifically bind to connective tissue growth factor (CTGF). Owing to the elevated expression of CTGF is an upstream regulator of amyloid-beta (Aβ) plaque, the probe holds a promise for potential application in the early diagnosis of Alzheimer's disease (AD). The unique feature of this probe is their capacity to emit near-infrared (NIR) light, rendering them suitable for in vivo imaging. Moreover, their ability to […]
The article is well-crafted, and the experiments convincingly highlight the distinctive properties of the newly developed probe. […]
following concerns are addressed.
Reviewer 1: How long can the fluorescence last in the cells and AD brain, or how stable is the fluorescence of the probe?
Response: We monitored the fluorescence changes of DGC probes in vitro, in U87MG cells and in brain of APP/PS1 mice, respectively. […]
cultured U87MG cells, DGC probe could be well internalized, and obvious […]
medium for 72 h (Fig R5). In APP/PS1 mice, we detected temporal changes of luminescence from DGC in the brain by in vivo NIR-II imaging. […]
Figure R6. […] Monitoring fluorescence intensity of DGC in brain of WT mice and 3-month-old APP/PS1 mice for 24 h (left). […]

Substance: DGC: CTGF-targeting peptide-coated gold nanocluster: one Au26 gold nanocluster coated by eight DAG cyclic peptides, NIR-II and red fluorescence (CDAGRKQKC; also: cyclic peptide, ring not given here, eight peptides on one Au26 nanocluster via Cys Au-S bonds)
- Cell viability (CTX TNA2 cells; 5 μM (Au content), replicate 1): 1.236
- Cell viability (CTX TNA2 cells; 5 μM (Au content), replicate 2): 1.185
- Cell viability (CTX TNA2 cells; 5 μM (Au content), replicate 3): 1.252
- Cell viability (CTX TNA2 cells; 10 μM (Au content), replicate 1): 1.248
- Cell viability (CTX TNA2 cells; 10 μM (Au content), replicate 2): 1.23
- Cell viability (CTX TNA2 cells; 10 μM (Au content), replicate 3): 1.328
- Cell viability (CTX TNA2 cells; 20 μM (Au content), replicate 1): 1.233
- Cell viability (CTX TNA2 cells; 20 μM (Au content), replicate 2): 1.3
- Cell viability (CTX TNA2 cells; 20 μM (Au content), replicate 3): 1.347
- Cell viability (CTX TNA2 cells; 50 μM (Au content), replicate 1): 1.269
- Cell viability (CTX TNA2 cells; 50 μM (Au content), replicate 2): 1.237
- Cell viability (CTX TNA2 cells; 50 μM (Au content), replicate 3): 1.251
- Cell viability (CTX TNA2 cells; 100 μM (Au content), replicate 1): 1.349
- Cell viability (CTX TNA2 cells; 100 μM (Au content), replicate 2): 1.363
- Cell viability (CTX TNA2 cells; 100 μM (Au content), replicate 3): 1.443
- Cell viability (CTX TNA2 cells; 500 μM (Au content), replicate 1): 1.758
- Cell viability (CTX TNA2 cells; 500 μM (Au content), replicate 2): 1.646
- Cell viability (CTX TNA2 cells; 500 μM (Au content), replicate 3): 1.62
- cytotoxicity (CTX TNA2 cells; DGC incubation 24 h, CCK-8): did not cause any obvious cytotoxicity
- NIR-II fluorescence in the brains (CTGF; 24 h after injection): still observed
- time of peak brain NIR-II signal (CTGF; after tail vein injection of DGC): 4 h
- abnormalities in blood parameters and major organs [1]: did not induce any abnormalities in blood parameters and major organs
- fluorescence intensity change on storage [2]: decreased only slightly; also recorded: decreased only
